Columns and labels:
[1] = tested on: PRRSV NVSL virion, M/GP5 surface complex (Porcine reproductive and respiratory syndrome virus type 2); test: cell_activity; conditions: protection of MARC-145 cells, 500 pmole aptamer, MTT assay
[2] = tested on: PRRSV LHVA-93-3 virion, M/GP5 surface complex (Porcine reproductive and respiratory syndrome virus type 2); test: cell_activity; conditions: protection of MARC-145 cells, 500 pmole aptamer, MTT assay; also reduces lung titre in swine
[3] = target: T1, PRRSV type 1 (Lelystad) M-S-S-GP5 disulfide-linked heterodimer peptide complex (Porcine reproductive and respiratory …, UniProt Q04565;Q04569); test: ELONA; type 1 complex; conditions: protein: synthetic
T1 chain 1: MGGLDDFCNDPIAAQ
T1 chain 2: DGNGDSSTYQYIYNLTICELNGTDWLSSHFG

[4] = target: T2, PRRSV type 2 M(1-16)-S-S-GP5(31-61) disulfide-linked heterodimer peptide complex (Porcine reproductive and respiratory …); test: ELONA; streptavidin plate, PBS-T, 37 C; conditions: protein: synthetic, tags: His-labelled (Ni-NTA captured), synthetic glycosylated peptide complex, disulfide M Cys9-GP5 Cys48
T2 chain 1: MGSSLDDFCHDSTAPQ
T2 chain 2: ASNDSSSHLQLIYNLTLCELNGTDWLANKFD

[5] = label: biotin (reverse screening ELISA)

GGGCGACCCTGAAGAGTTTGTAATCTGCGATTTTAAAGTTGAGTCGTCGCGAAACGGTGAAAGCCGTAGGTTGCCC [A505 (CoocSeq5)]
activity [1]: 70%
activity [2]: 60%

B1: PEU-842 (ssDNA)
DNA: GGGCGACCCTGAAGAGGACCAGAAGCACGGACCACACACAGCGTATCGAAACGGTGAAAGCCGTAGGTTGCCC
binding result [3]: binds

B2: PEU-499 (ssDNA)
DNA: GGGCGACCCTGAAGAGTACACACGGGACACACACACACTCACTAGACGAAACGGTGAAAGCCGTAGGTTGCCC
binding result [3]: binds

B3: PEU-962 (ssDNA)
DNA: GGGCGACCCTGAAGAGGATAGACAATAGCACACCACGCCCCTGCCACGAAACGGTGAAAGCCGTAGGTTGCCC
binding result [3]: binds

B4: A505 (CoocSeq5) (ssDNA)
DNA: GGGCGACCCTGAAGAGTTTGTAATCTGCGATTTTAAAGTTGAGTCGTCGCGAAACGGTGAAAGCCGTAGGTTGCCC
binding result ([4]; label: 5' biotin (reverse screening ELISA)): binds

B5: A507 (CoocSeq7_HistoSeq14) (ssDNA)
DNA: GGGCGACCCTGAAGAGGTTTGCATATTATAGTTATAGGAGGTGTGTAATGGACGAAACGGTGAAAGCCGTAGGTTGCCC
binding result [4, 5]: binds

B6: A508 (CoocSeq8) (ssDNA)
DNA: GGGCGACCCTGAAGAGACTGGTGAGTTAATGTTTTTTCTTAGCCTTGTATCGAAACGGTGAAAGCCGTAGGTTGCCC
binding result [4, 5]: binds

B7: PEU-424 (ssDNA)
DNA: GGGCGACCCTGAAGAGGATGTTGATAGAGCGCCGACCACACACGCACGAAACGGTGAAAGCCGTAGGTTGCCC
binding result [3]: binds

B8: PEU-852 (ssDNA)
DNA: GGGCGACCCTGAAGAGGACACTGCACGTACACAACGAGGATGAACACGAAACGGTGAAAGCCGTAGGTTGCCC
binding result [3]: binds

Reference: patent US20180371461, “[…], NUCLEIC ACID MOLECULES, POLYNUCLEOTIDES, […] ANTIBODIES COMPOSITIONS FOR […] PRRS VIRUSES AND […] PRRS VIRUS INFECTION” (AEROVIRUS TECHNOLOGIES INC., published 2018)
